Experimental data taken from patent US20110251256A1 (KOREA UNIVERSITY INDUSTRIAL AND ACADEMIC COLLABORATIVE …, published 2011).

T1: IRS-1 (endogenous protein of C2C12 cells) (UniProt P35569 1-1233)
T1 construct: also called insulin receptor substrate-1
T1 sequence (looked up): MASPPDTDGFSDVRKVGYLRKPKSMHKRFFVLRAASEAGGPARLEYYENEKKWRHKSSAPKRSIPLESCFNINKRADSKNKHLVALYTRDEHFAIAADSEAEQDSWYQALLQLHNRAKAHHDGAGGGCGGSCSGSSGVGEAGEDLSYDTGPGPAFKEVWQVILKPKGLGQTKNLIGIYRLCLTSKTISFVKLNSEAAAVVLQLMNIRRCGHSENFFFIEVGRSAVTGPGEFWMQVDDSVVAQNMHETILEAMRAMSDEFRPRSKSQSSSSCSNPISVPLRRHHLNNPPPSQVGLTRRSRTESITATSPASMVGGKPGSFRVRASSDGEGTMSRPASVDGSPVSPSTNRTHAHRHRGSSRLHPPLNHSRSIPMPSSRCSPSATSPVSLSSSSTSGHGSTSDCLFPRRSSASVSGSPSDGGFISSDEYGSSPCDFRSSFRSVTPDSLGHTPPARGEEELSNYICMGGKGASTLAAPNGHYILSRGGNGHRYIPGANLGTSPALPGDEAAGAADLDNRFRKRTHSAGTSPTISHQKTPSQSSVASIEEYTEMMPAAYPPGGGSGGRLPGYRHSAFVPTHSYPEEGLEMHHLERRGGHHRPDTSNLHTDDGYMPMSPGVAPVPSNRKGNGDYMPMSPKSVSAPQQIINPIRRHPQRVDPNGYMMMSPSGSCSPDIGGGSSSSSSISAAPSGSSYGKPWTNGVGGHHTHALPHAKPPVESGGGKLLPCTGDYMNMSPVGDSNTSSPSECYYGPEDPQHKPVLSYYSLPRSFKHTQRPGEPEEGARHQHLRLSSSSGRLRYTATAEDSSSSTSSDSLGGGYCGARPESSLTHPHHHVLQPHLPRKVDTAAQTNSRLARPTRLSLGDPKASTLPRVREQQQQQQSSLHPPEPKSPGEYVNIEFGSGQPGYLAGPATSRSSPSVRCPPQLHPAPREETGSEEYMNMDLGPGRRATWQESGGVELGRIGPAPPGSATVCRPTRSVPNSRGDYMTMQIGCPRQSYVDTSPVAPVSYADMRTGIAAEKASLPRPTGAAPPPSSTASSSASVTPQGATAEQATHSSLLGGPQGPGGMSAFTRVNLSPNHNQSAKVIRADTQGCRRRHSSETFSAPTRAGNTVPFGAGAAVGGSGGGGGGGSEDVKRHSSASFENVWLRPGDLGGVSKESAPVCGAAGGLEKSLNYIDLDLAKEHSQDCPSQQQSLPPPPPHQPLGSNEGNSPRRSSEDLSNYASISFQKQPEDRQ

T2: IRS-1 (endogenous protein of C2C12 cells), P35569
T2 chain: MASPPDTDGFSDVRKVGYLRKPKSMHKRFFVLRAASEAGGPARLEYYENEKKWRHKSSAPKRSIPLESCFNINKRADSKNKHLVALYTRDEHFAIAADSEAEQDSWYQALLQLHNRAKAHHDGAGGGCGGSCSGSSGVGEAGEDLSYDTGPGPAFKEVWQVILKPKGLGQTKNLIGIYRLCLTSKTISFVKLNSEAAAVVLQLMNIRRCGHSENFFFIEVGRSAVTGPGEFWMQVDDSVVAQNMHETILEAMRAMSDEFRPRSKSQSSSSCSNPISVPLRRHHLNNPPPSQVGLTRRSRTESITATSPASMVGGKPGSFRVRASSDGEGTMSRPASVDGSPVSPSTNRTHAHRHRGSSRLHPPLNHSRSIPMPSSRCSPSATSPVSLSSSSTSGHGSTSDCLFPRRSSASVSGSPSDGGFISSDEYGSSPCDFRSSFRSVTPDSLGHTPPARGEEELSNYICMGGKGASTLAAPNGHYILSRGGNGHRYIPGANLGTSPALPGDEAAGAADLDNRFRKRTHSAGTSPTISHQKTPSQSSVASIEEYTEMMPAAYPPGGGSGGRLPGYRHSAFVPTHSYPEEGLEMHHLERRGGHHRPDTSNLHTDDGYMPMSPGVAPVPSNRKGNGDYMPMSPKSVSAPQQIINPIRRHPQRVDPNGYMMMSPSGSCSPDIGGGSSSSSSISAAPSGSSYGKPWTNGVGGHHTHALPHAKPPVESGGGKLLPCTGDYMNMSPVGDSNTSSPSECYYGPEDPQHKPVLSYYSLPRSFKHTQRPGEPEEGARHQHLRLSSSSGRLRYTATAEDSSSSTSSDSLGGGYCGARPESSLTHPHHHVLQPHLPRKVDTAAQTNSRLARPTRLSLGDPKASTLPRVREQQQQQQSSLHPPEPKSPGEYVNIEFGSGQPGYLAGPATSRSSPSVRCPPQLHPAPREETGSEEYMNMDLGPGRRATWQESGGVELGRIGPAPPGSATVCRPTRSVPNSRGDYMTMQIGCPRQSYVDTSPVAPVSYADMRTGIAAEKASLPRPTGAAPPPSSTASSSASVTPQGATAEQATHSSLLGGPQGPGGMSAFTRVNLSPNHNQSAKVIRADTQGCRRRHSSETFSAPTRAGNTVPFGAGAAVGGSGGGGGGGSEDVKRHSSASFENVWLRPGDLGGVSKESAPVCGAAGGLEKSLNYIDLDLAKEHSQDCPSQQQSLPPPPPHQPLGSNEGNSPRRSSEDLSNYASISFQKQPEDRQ

T3: M-Cadherin (endogenous protein of C2C12 myotubes), P33146
T3 chain: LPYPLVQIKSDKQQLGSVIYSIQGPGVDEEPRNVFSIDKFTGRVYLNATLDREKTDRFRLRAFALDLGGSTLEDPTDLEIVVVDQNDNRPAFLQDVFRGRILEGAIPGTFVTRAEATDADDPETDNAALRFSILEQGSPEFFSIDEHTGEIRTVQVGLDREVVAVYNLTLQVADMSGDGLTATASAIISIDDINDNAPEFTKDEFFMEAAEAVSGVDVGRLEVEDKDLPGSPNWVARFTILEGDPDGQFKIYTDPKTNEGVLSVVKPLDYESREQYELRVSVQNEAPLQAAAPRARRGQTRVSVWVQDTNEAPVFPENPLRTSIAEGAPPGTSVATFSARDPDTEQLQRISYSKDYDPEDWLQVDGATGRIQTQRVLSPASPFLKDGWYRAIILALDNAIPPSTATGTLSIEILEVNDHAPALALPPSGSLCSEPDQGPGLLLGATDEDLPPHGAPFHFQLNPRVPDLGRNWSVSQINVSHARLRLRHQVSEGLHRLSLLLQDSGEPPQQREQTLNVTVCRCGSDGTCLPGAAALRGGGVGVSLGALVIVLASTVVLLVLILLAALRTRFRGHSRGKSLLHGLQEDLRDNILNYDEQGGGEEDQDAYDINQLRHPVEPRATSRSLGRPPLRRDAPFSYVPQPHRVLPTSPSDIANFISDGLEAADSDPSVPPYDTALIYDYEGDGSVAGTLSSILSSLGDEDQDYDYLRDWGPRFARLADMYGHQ

T4: β-Catenin (endogenous protein of C2C12 myotubes) (UniProt Q02248 2-781)
T4 construct: also called 13-Catenin
T4 sequence (looked up): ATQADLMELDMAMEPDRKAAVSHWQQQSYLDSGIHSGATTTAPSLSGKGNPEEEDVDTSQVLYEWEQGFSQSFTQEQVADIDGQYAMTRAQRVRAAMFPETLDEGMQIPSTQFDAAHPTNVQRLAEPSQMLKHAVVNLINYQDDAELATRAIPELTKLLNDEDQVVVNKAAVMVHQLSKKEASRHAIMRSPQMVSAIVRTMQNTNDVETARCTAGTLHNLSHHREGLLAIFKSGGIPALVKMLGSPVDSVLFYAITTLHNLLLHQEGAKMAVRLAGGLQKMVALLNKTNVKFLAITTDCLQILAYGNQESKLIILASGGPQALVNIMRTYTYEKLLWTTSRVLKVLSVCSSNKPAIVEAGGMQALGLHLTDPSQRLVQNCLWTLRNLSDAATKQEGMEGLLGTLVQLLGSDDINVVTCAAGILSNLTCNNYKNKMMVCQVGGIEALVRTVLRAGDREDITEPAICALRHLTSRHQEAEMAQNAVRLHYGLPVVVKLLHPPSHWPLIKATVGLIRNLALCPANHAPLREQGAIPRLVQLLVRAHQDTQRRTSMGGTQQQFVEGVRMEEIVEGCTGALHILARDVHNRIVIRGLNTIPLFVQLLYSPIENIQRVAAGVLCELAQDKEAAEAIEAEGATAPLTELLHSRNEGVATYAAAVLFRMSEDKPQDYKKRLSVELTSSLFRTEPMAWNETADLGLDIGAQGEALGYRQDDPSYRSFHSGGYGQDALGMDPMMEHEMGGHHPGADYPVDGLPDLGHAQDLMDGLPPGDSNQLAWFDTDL

B1: M-Cadherin (endogenous protein of C2C12 myotubes) (other, UniProt P33146 60-784, looked up)
chain: LPYPLVQIKSDKQQLGSVIYSIQGPGVDEEPRNVFSIDKFTGRVYLNATLDREKTDRFRLRAFALDLGGSTLEDPTDLEIVVVDQNDNRPAFLQDVFRGRILEGAIPGTFVTRAEATDADDPETDNAALRFSILEQGSPEFFSIDEHTGEIRTVQVGLDREVVAVYNLTLQVADMSGDGLTATASAIISIDDINDNAPEFTKDEFFMEAAEAVSGVDVGRLEVEDKDLPGSPNWVARFTILEGDPDGQFKIYTDPKTNEGVLSVVKPLDYESREQYELRVSVQNEAPLQAAAPRARRGQTRVSVWVQDTNEAPVFPENPLRTSIAEGAPPGTSVATFSARDPDTEQLQRISYSKDYDPEDWLQVDGATGRIQTQRVLSPASPFLKDGWYRAIILALDNAIPPSTATGTLSIEILEVNDHAPALALPPSGSLCSEPDQGPGLLLGATDEDLPPHGAPFHFQLNPRVPDLGRNWSVSQINVSHARLRLRHQVSEGLHRLSLLLQDSGEPPQQREQTLNVTVCRCGSDGTCLPGAAALRGGGVGVSLGALVIVLASTVVLLVLILLAALRTRFRGHSRGKSLLHGLQEDLRDNILNYDEQGGGEEDQDAYDINQLRHPVEPRATSRSLGRPPLRRDAPFSYVPQPHRVLPTSPSDIANFISDGLEAADSDPSVPPYDTALIYDYEGDGSVAGTLSSILSSLGDEDQDYDYLRDWGPRFARLADMYGHQ

Experiments:
[1] = biological target: T1, IRS-1 (endogenous protein of C2C12 …); test: endogenous immunoprecipitation in C2C12 myotubes treated with IGF-I for 0, 5 and 30 minutes (FIG. 9A)
Method: Western blotting and immunostaining were performed as described in Kim, K. B. et al. Proteomics 6, 2444-53 (2006). For immunoprecipitation, cells were lysed in buffer containing 20 mM Tris-HCl pH 7.4, 137 mM NaCl, 1 mM MgCl₂, 1 mM CaCl₂, 20 mM NaF, 10 mM Na₄P₂O₇, 1% NP-40, 1 mM Na₃VO₄, 1 mM PMSF and protease inhibitor cocktail (Roche). The whole cell lysates (600 μg protein) were incubated with specific antibodies for 90 min and then with 50 μl of Protein A-sepharose or G-agarose bead (50%) slurry for 1 h. The immunoprecipitates were analyzed by Western blotting.
Next, the effect of TRIM72 on IGF-1-induced tyrosine phosphorylation of IGFR and IRS-1 was investigated. The tyrosine phosphorylation of IGFR induced by IGF-I was not changed by TRIM72 overexpression or knockdown (FIG. 8). […] Moreover, the molecular association of IRS-1 with PI3K after IGF-I stimulation was weakened by TRIM72 overexpression, but fortified by TRIM72 knockdown. […] In order to analyze the binding domains of TRIM72 and IRS-1, various mutants of both genes were manufactured (FIG. 9B) and transfected into 293 cells. Then, the binding activity was investigated by immunoprecipitation. […] It should be noted that the 293 cells were treated with MG132 (proteasome inhibitor) after transferring IRS-1 and TRIM72.

[2] = biological target: B1; test: immunoprecipitation of myotube protein with TRIM72 antibody or M-Cadherin antibody (FIGS. 12G and 12H)
[3] = biological target: T2, IRS-1 (endogenous protein of C2C12 …)
[4] = biological target: T3, M-Cadherin (endogenous protein of C2C12 …)
[5] = biological target: T4, β-Catenin (endogenous protein of C2C12 …); test: immunoprecipitation from myotubes treated with Si-Control or Si-TRIM72 (FIG. 12F)

binding result [1]	binding result [2]	binding result [5]	Binder	molecular association of IRS-1 with PI3K after IGF-I stimulation [3]	tyrosine phosphorylation of IRS-1 induced by IGF-I [3]	ubiquitination of M-Cadherin in myotubes with reduced TRIM72 [4]
binds	binds	–	TRIM72 (endogenous protein of C2C12 myotubes) (enzyme, Endogenous protein in lysates of C2C12 myotubes; also called tripartite motif-containing 72) MSAAPGLLRQELSCPLCLQLFDAPVTAECGHSFCRACLIRVAGEPAADGTVACPCCQAPTRPQALSTNLQLSRLVEGLAQVPQGHCEEHLDPLSIYCEQDRTLVCGVCASLGSHRGHRLLPAAEAQARLKTQLPQQKMQLQEACMRKEKTVAVLEHQLVEVEETVRQFRGAVGEQLGKMRMFLAALESSLDREAERVRGDAGVALRRELSSLNSYLEQLRQMEKVLEEVADKPQTEFLMKFCLVTSRLQKILSESPPPARLDIQLPVISDDFKFQVWKKMFRALMPALEELTFDPSSAHPSLVVSSSGRRVECSDQKAPPAGEDTRQFDKAVAVVAQQLLSQGEHYWEVEVGDKPRWALGVMAADASRRGRLHAVPSQGLWLLGLRDGKILEAHVEAKEPRALRTPERPPARIGLYLSFADGVLAFYDASNPDVLTPIFSFHERLPGPVYPIFDVCWHDKGKNAQPLLLVGPEQEQA	the molecular association of IRS-1 with PI3K after IGF-I stimulation was weakened by TRIM72 overexpression, but fortified by TRIM72 knockdown	the tyrosine phosphorylation of IRS-1 was decreased by TRIM72 overexpression, but increased by TRIM72 knockdown	Si-Control treated cells showed stained band (which denotes ubiquitination), whereas Si-TRIM72-treated cells did not
–	–	binds	B1	–	–	–
